Here are results for one substance from paper doi:10.1101/308353.

The experiment concerns the target GFP-βRat CaMKII holoenzyme (rat) (UniProt P08413). As to the kind of experiment: single molecule TIRF microscopy.
Chain of UniProt P08413 (P08413 whole entry): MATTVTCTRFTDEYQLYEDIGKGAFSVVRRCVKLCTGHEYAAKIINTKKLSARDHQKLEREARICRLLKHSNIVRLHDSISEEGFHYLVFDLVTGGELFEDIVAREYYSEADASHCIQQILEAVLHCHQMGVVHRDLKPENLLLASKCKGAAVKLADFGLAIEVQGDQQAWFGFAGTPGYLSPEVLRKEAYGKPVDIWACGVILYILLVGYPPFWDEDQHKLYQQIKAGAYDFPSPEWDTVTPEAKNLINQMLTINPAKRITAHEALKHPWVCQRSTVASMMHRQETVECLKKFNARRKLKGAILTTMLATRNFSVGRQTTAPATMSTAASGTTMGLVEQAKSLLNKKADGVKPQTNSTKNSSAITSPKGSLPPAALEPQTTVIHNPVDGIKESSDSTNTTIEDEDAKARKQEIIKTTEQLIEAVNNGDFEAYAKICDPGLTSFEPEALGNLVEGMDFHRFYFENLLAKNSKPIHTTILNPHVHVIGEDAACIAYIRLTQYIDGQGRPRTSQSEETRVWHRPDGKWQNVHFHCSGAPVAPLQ

Regarding “Cy3 conjugated G-actin (from UniProt P68135 1-377) (natural protein)”, the Pearson's correlation of co-localization worked out at 0.33.
